System: Escherichia coli TOP10
Assay: shrunken log2 fold change of peptide-encoding DNA abundance (4.5 h post-induction vs induction); higher = less antimicrobial activity (less host growth inhibition)
Settings: time post-induction: 4.5 h; library: site-saturation at positions 5, 18, 19, 20
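Further: peptides expressed intracellularly from a pBAD plasmid library in pooled LB shake-flask culture, induced with 0.3% L-arabinose, DNA abundance read by NGS, three biological replicates, DESeq2 with apeglm shrinkage.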

Row | Sequence | shrunken log2 fold change
1 | RRIRCRPPRLPRPRPRPWSNPRP | 0.00372
2 | RRIRKRPPRLPRPRPRPEKSPRP | 0.0144
3 | RRIRTRPPRLPRPRPRPPNCPRP | 0.0905
4 | RRIRRRPPRLPRPRPRPMRRPRP | 0.425
5 | RRIRSRPPRLPRPRPRPEWAPRP | 0.273
6 | RRIRGRPPRLPRPRPRPRYFPRP | -0.0468
7 | RRIRCRPPRLPRPRPRPHGFPRP | -0.0942
8 | RRIRNRPPRLPRPRPRPENPPRP | 0.0192
9 | RRIRYRPPRLPRPRPRPSAMPRP | -0.0964
10 | RRIRYRPPRLPRPRPRPVIVPRP | -0.877
11 | RRIRFRPPRLPRPRPRPDLAPRP | 0.0811
12 | RRIRSRPPRLPRPRPRPYWSPRP | -0.414
13 | RRIRDRPPRLPRPRPRPIYTPRP | -0.105
14 | RRIRIRPPRLPRPRPRPLGQPRP | -0.00501
15 | RRIRCRPPRLPRPRPRPVWSPRP | -0.119
16 | RRIRMRPPRLPRPRPRPEYPPRP | 0.0399
17 | RRIRVRPPRLPRPRPRPTTEPRP | 0.14
18 | RRIRCRPPRLPRPRPRPMLRPRP | 0.184
19 | RRIRCRPPRLPRPRPRPEWNPRP | 0.202
20 | RRIRVRPPRLPRPRPRPNWKPRP | -0.0426
21 | RRIRKRPPRLPRPRPRPCWHPRP | 0.00832
22 | RRIRRRPPRLPRPRPRPIMCPRP | 0.0545
23 | RRIRWRPPRLPRPRPRPKSSPRP | 0.000999
24 | RRIRARPPRLPRPRPRPYDCPRP | -0.131
25 | RRIRYRPPRLPRPRPRPHSWPRP | -0.69

Row | Sequence | shrunken log2 fold change
26 | RRIRERPPRLPRPRPRPSFAPRP | -0.192
27 | RRIRWRPPRLPRPRPRPSSRPRP | 0.188
28 | RRIRKRPPRLPRPRPRPVHDPRP | 0.0707
29 | RRIRARPPRLPRPRPRPESMPRP | 0.77
30 | RRIRPRPPRLPRPRPRPKATPRP | 0.463
31 | RRIRSRPPRLPRPRPRPLAGPRP | 0.225
32 | RRIRWRPPRLPRPRPRPDDSPRP | -0.183
33 | RRIRGRPPRLPRPRPRPGNFPRP | -0.00767
34 | RRIRKRPPRLPRPRPRPTWMPRP | 0.466
35 | RRIRCRPPRLPRPRPRPWFHPRP | -1.28
36 | RRIRMRPPRLPRPRPRPRPAPRP | 1.51
37 | RRIRCRPPRLPRPRPRPSFLPRP | -0.718
38 | RRIRNRPPRLPRPRPRPLFWPRP | 0.0854
39 | RRIRFRPPRLPRPRPRPMYWPRP | 0.146
40 | RRIRERPPRLPRPRPRPRCVPRP | 0.0448
41 | RRIRRRPPRLPRPRPRPMWSPRP | 0.311
42 | RRIRERPPRLPRPRPRPFWVPRP | 0.0389
43 | RRIRNRPPRLPRPRPRPFNFPRP | 0.125
44 | RRIRHRPPRLPRPRPRPTNIPRP | -0.135
45 | RRIRFRPPRLPRPRPRPYLHPRP | -0.454
46 | RRIRSRPPRLPRPRPRPDEDPRP | -0.00181
47 | RRIRERPPRLPRPRPRPHQVPRP | -0.0847
48 | RRIRSRPPRLPRPRPRPCANPRP | -0.113
49 | RRIRMRPPRLPRPRPRPWNSPRP | -0.00149
50 | RRIRRRPPRLPRPRPRPFCPPRP | -0.106

Row | Sequence | shrunken log2 fold change
51 | RRIRVRPPRLPRPRPRPLHEPRP | -0.0936
52 | RRIRRRPPRLPRPRPRPIRSPRP | 0.022
53 | RRIRTRPPRLPRPRPRPVWVPRP | -0.0284
54 | RRIRLRPPRLPRPRPRPKAHPRP | 0.125
55 | RRIRQRPPRLPRPRPRPHEFPRP | -0.287
56 | RRIRIRPPRLPRPRPRPSGKPRP | -0.146
57 | RRIRVRPPRLPRPRPRPQGAPRP | 0.168
58 | RRIRWRPPRLPRPRPRPNYTPRP | -0.279
59 | RRIRKRPPRLPRPRPRPNMAPRP | 0.00469
60 | RRIRMRPPRLPRPRPRPIREPRP | 0.425
61 | RRIRWRPPRLPRPRPRPIQVPRP | -0.0332
62 | RRIRLRPPRLPRPRPRPVIWPRP | 0.0724
63 | RRIRGRPPRLPRPRPRPRFYPRP | 0.189
64 | RRIRFRPPRLPRPRPRPLNRPRP | -0.196
65 | RRIRCRPPRLPRPRPRPFETPRP | -0.0151
66 | RRIRDRPPRLPRPRPRPDFAPRP | 0.152
67 | RRIRGRPPRLPRPRPRPHWHPRP | 0.0418
68 | RRIRKRPPRLPRPRPRPKGMPRP | -0.00227
69 | RRIRGRPPRLPRPRPRPSWEPRP | 0.0693
70 | RRIRHRPPRLPRPRPRPTQFPRP | -0.631
71 | RRIRWRPPRLPRPRPRPVEKPRP | 0.234
72 | RRIRCRPPRLPRPRPRPRRWPRP | 0.646
73 | RRIRDRPPRLPRPRPRPTVEPRP | 0.766
74 | RRIRMRPPRLPRPRPRPHLCPRP | -0.117
75 | RRIRRRPPRLPRPRPRPYITPRP | -0.523

Row | Sequence | shrunken log2 fold change
76 | RRIRKRPPRLPRPRPRPSMNPRP | -0.00473
77 | RRIRNRPPRLPRPRPRPQHLPRP | -0.517
78 | RRIRARPPRLPRPRPRPKPGPRP | 0.644
79 | RRIRKRPPRLPRPRPRPCYVPRP | -0.69
80 | RRIRQRPPRLPRPRPRPEVVPRP | 0.196
81 | RRIRKRPPRLPRPRPRPMIPPRP | 0.0969
82 | RRIRARPPRLPRPRPRPWIAPRP | -0.0071
83 | RRIRSRPPRLPRPRPRPLTWPRP | -0.104
84 | RRIRMRPPRLPRPRPRPLPGPRP | 0.8
85 | RRIRRRPPRLPRPRPRPWMMPRP | 0.0519
86 | RRIRLRPPRLPRPRPRPEIHPRP | -0.269
87 | RRIRDRPPRLPRPRPRPGPPPRP | 0.733
88 | RRIRARPPRLPRPRPRPSQYPRP | -0.00629
89 | RRIRSRPPRLPRPRPRPHFMPRP | -0.48
90 | RRIRDRPPRLPRPRPRPMCWPRP | 0.564
91 | RRIRGRPPRLPRPRPRPYGEPRP | 0.398
92 | RRIRCRPPRLPRPRPRPIDVPRP | -0.856
93 | RRIRSRPPRLPRPRPRPHKPPRP | -0.507
94 | RRIRLRPPRLPRPRPRPTWFPRP | 0.0207
95 | RRIRKRPPRLPRPRPRPELDPRP | 0.121
96 | RRIRFRPPRLPRPRPRPMMYPRP | -0.104
97 | RRIRYRPPRLPRPRPRPCHIPRP | -0.0462
98 | RRIRMRPPRLPRPRPRPAGFPRP | 0.733
99 | RRIRQRPPRLPRPRPRPYFSPRP | -0.451
100 | RRIRKRPPRLPRPRPRPEWEPRP | 0.271

Row | Sequence | shrunken log2 fold change
101 | RRIRSRPPRLPRPRPRPFSFPRP | -0.633
102 | RRIRNRPPRLPRPRPRPNGGPRP | 0.153
103 | RRIRCRPPRLPRPRPRPQCCPRP | 0.254
104 | RRIRHRPPRLPRPRPRPHEKPRP | -0.00373
105 | RRIRFRPPRLPRPRPRPHPFPRP | -0.105
106 | RRIRPRPPRLPRPRPRPPDGPRP | 0.067
107 | RRIRNRPPRLPRPRPRPSFHPRP | -0.41
108 | RRIRCRPPRLPRPRPRPEIDPRP | 0.138
109 | RRIRWRPPRLPRPRPRPAIWPRP | 0.596
110 | RRIRTRPPRLPRPRPRPGGYPRP | -0.0912
111 | RRIRQRPPRLPRPRPRPMTEPRP | -0.0192
112 | RRIRHRPPRLPRPRPRPHHNPRP | -0.672
113 | RRIRMRPPRLPRPRPRPQIDPRP | 0.141
114 | RRIRGRPPRLPRPRPRPSTAPRP | 0.926
115 | RRIRTRPPRLPRPRPRPYTPPRP | -0.34
116 | RRIRGRPPRLPRPRPRPFDRPRP | 0.0386
117 | RRIRFRPPRLPRPRPRPTNHPRP | -0.536
118 | RRIRCRPPRLPRPRPRPMRCPRP | 0.404
119 | RRIRERPPRLPRPRPRPGWCPRP | 0.00111
120 | RRIRLRPPRLPRPRPRPKDTPRP | 0.0949
121 | RRIRLRPPRLPRPRPRPLWNPRP | -0.228
122 | RRIRYRPPRLPRPRPRPQGDPRP | -0.074
123 | RRIRARPPRLPRPRPRPWVAPRP | 0.285
124 | RRIRPRPPRLPRPRPRPVRNPRP | 0.22
125 | RRIRIRPPRLPRPRPRPDLEPRP | -0.0323

Row | Sequence | shrunken log2 fold change
126 | RRIRARPPRLPRPRPRPFFEPRP | 0.423
127 | RRIRPRPPRLPRPRPRPNVKPRP | -0.475
128 | RRIRNRPPRLPRPRPRPHGHPRP | -0.0841
129 | RRIRTRPPRLPRPRPRPQFCPRP | -0.486
130 | RRIRLRPPRLPRPRPRPHAWPRP | 0.62
131 | RRIRLRPPRLPRPRPRPPFAPRP | 0.543
132 | RRIRYRPPRLPRPRPRPYSMPRP | -0.0134
133 | RRIRRRPPRLPRPRPRPTPSPRP | 0.772
134 | RRIRTRPPRLPRPRPRPMTWPRP | 0.0637
135 | RRIRLRPPRLPRPRPRPHYHPRP | -1.26
136 | RRIRSRPPRLPRPRPRPFEMPRP | -0.353
137 | RRIRNRPPRLPRPRPRPLHFPRP | -0.563
138 | RRIRSRPPRLPRPRPRPWKLPRP | -0.221
139 | RRIRLRPPRLPRPRPRPPKEPRP | 0.00696
140 | RRIRWRPPRLPRPRPRPFIKPRP | -0.686
141 | RRIRVRPPRLPRPRPRPQNHPRP | -0.608
142 | RRIRTRPPRLPRPRPRPSPDPRP | -0.331
143 | RRIRPRPPRLPRPRPRPDGMPRP | -0.0319
144 | RRIRIRPPRLPRPRPRPYSIPRP | -0.129
145 | RRIRIRPPRLPRPRPRPMWYPRP | -0.554
146 | RRIRQRPPRLPRPRPRPLNGPRP | -0.128
147 | RRIRLRPPRLPRPRPRPHDHPRP | 0.0691
148 | RRIRPRPPRLPRPRPRPWTPPRP | 0.0256
149 | RRIRNRPPRLPRPRPRPVQPPRP | 0.0494
150 | RRIRDRPPRLPRPRPRPMHDPRP | 0.122

— the supplement of paper PMC9112550, “Optimization of the antimicrobial peptide Bac7 by deep mutational scanning” (BMC Biology, 2022)
